Measured values as given in US20250333523A1 (Alector, published 2025).
Residue numbers refer to the chain shown, from its start.

T1: Avi/His-HuIL18BPa (recombinant human IL-18BP isoform A with Avi and poly-His tags) (human, biotinylated with BirA on the Avi tag in some assays)
T1 chain: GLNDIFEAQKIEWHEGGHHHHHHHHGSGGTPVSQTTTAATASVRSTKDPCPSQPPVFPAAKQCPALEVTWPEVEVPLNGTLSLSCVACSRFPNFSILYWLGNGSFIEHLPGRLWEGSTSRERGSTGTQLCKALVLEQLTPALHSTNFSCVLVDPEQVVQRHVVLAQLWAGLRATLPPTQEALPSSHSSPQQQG

T2: Avi/HisMsIL18BPd (recombinant mouse IL-18BP with Avi and poly-His tags) (mouse, biotinylated with BirA on the Avi tag in some assays)
T2 chain: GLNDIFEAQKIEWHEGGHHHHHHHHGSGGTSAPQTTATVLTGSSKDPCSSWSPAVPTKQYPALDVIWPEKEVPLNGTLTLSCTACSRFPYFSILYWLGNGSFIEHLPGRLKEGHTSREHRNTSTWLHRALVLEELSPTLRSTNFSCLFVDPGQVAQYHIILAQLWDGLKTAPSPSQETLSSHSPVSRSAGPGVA

T3: His/Avi-CynoIL18BP (recombinant cynomolgus IL-18BP with His and Avi tags) (cynomolgus monkey)
T3 construct: also called cynomolgus IL-18BP-Avi-His
T3 chain: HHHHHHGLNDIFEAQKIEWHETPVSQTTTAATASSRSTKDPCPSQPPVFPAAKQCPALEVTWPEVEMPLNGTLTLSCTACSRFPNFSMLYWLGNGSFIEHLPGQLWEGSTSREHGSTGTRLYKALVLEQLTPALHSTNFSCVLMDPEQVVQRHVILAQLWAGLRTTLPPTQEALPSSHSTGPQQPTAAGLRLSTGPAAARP

B1: anti-IL-18BP antibody variant BP-04.04 (antibody, V domains shown)
VH: QVQLVQSGAEVKKPGASVKVSCKASGYTFTDYDMHWVRQAPGQGLEWMGIISTYYGDVSYAQKKQGRVTMTRDKSTSTVYMELSSLRSEDTAVYYCARSGTYNYGTRESHPLDYWGQGTLVTVSS
VL: DIQMTQSPSSVSASVGDRVTITCRASDNVYSNLAWYQQKPGKAPKLLIYGAISLADGVPSRFSGSGSGTDFTLTISSLQPEDFATYYCQHFWGNPYTFGQGTKLEIK
B2: anti-IL-18BP antibody variant BP-04.17 (antibody, V domains shown)
VH: B1 VH with N103Y
VL: B1 VL
B3: anti-IL-18BP antibody variant BP-04.13 (antibody, V domains shown)
VH: B1 VH with K64F, N103Y, L112F
VL: B1 VL
B4: anti-IL-18BP antibody variant BP-04.12 (antibody, V domains shown)
VH: B1 VH with I51Y, D57V, N103Y, P111A
VL: B1 VL
B5: anti-IL-18BP antibody variant BP-04.20 (antibody, V domains shown)
VH: B1 VH with D57V, K64F, N103Y
VL: B1 VL
B6: anti-IL-18BP antibody variant BP-04.02 (antibody, V domains shown)
VH: B1 VH with M34L, K64F, T101M, N103Y, P111A
VL: B1 VL
B7: anti-IL-18BP antibody variant BP-04.06 (antibody, V domains shown)
VH: B1 VH with D57V, N103Y
VL: B1 VL
B8: anti-IL-18BP antibody variant BP-04.01 (antibody, V domains shown)
VH: QVQLVQSGAEVKKPGASVKVSCKASGYTFTDYDMWVRQAPGQGLEWMGIISTYYGDVSYAIKFQGRVTMTRDKSTSTVYMELSSLRSEDTAVYYCARSGTYYYGTRESALDYWGQGTLVTVSS
VL: B1 VL
B9: anti-IL-18BP antibody variant BP-04.26 (antibody, V domains shown)
VH: B1 VH with I51Y, D57V, K64F, N103Y, P111A
VL: B1 VL
B10: anti-IL-18BP antibody variant BP-04.23 (antibody, V domains shown)
VH: B1 VH with I51Y, K64F, N103Y, P111A, L112F
VL: B1 VL
B11: anti-IL-18BP antibody variant BP-04.18 (antibody, V domains shown)
VH: B1 VH with P111A
VL: B1 VL
B12: anti-IL-18BP antibody variant BP-04.27 (antibody, V domains shown)
VH: B1 VH with K64F, N103Y, P111A, L112F
VL: B1 VL
B13: anti-IL-18BP antibody variant BP-04.11 (antibody, V domains shown)
VH: B1 VH with I51Y, D57V, K64F, P111A
VL: B1 VL
B14: anti-IL-18BP antibody variant BP-04.32 (antibody, V domains shown)
VH: B1 VH with I51Y, K64F, N103Y, P111A
VL: B1 VL
B15: anti-IL-18BP antibody variant BP-04.21 (antibody, V domains shown)
VH: B1 VH with D57V, K64F, P111A
VL: B1 VL
B16: anti-IL-18BP antibody variant BP-04.19 (antibody, V domains shown)
VH: B1 VH with D57V, K64F, N103Y, P111A, L112F
VL: B1 VL
B17: anti-IL-18BP antibody variant BP-04.14 (antibody, V domains shown)
VH: B1 VH with K64F, P111A, L112F
VL: B1 VL
B18: anti-IL-18BP antibody variant BP-04.30 (antibody, V domains shown)
VH: B1 VH with N103Y, P111A
VL: B1 VL
B19: anti-IL-18BP antibody variant BP-04.22 (antibody, V domains shown)
VH: B1 VH with D57V, N103Y, P111A
VL: B1 VL
B20: anti-IL-18BP antibody variant BP-04.31 (antibody, V domains shown)
VH: B1 VH with D57V, K64F, N103Y, P111A
VL: B1 VL
B21: anti-IL-18BP antibody variant BP-04.16 (antibody, V domains shown)
VH: B1 VH with N103Y, P111A, L112F
VL: B1 VL
B22: anti-IL-18BP antibody variant BP-04.10 (antibody, V domains shown)
VH: B1 VH with I51Y, D57V, K64F, N103Y
VL: B1 VL
B23: anti-IL-18BP antibody variant BP-04.05 (antibody, V domains shown)
VH: B1 VH with D57V, N103Y, P111A, L112F
VL: B1 VL
B24: anti-IL-18BP antibody variant BP-04.03 (antibody, V domains shown)
VH: B1 VH with K64F, D90N, N103Y, S109Q, P111A
VL: B1 VL
B25: anti-IL-18BP antibody variant BP-04.24 (antibody, V domains shown)
VH: B1 VH with I51Y, K64F, N103Y
VL: B1 VL

Assays:
[1] = biological target: T1, Avi/His-HuIL18BPa (recombinant human …); experiment: cell-based or functional assay
[2] = biological target: T2, Avi/HisMsIL18BPd (recombinant mouse …); experiment: cell-based or functional assay
[3] = biological target: T1, Avi/His-HuIL18BPa (recombinant human …); experiment: SPR Biacore T200, IgG captured on Protein A/G
[4] = biological target: T3, His/Avi-CynoIL18BP (recombinant …); experiment: SPR Biacore T200, IgG captured on Protein A/G

Binder	EC50 of IFNγ release, human PBMCs [1] [nM]	EC50 of IFNγ release, mouse splenocytes [2] [nM]	Kd [3] [nM]	koff [3] [s⁻¹]	kon [3] [M⁻¹ s⁻¹]	Kd [4] [nM]	koff [4] [s⁻¹]	kon [4] [M⁻¹ s⁻¹]
B1	18.6	31.8						
B2	8.89	14.6						
B3	16.6	41.4						
B4	31.9	0.865						
B5	4.06	28.7						
B6	41.5	12.3						
B7	1.32	67.6						
B8		1.67						
B9	36.2	6.02						
B10	146	3.5						
B11	11.3	28.4						
B12	1.28	39.6						
B13	3.94	3.61						
B14	0.838	9.61	20	0.0074	370000	59	0.02	340000
B15	4.48	595						
B16	3.1	21.6						
B17	543	21.2						
B18		7.43						
B19	7.71	368						
B20	6.3							
B21	3.34	220						
B22	10.5	501						
B23	3.18	4.92	0.67	0.00034	510000	0.83	0.00038	460000
B24	10.5	0.881	1.9	0.00091	470000	3.1	0.0013	420000
B25	4.84		16	0.0047	290000	29	0.0059	200000
